The assay deals with M-CDP04 (αMCL1). The assay is described as follows: BLI; biotinylated BCL2 homolog (25 nM) immobilised on streptavidin biosensors, designed protein in solution at defined concentrations; Octet RED96; 10 mM HEPES pH 7.4, 150 mM NaCl, 3 mM EDTA, 0.05% surfactant P20, 0.5% non-fat dry milk; titrations in triplicate, 1:1 binding model. Particulars: both partners purified. (In general: BLI is a label-free optical method that tracks binding on a fibre tip over time.)

Values joined by “and” are separate entries in the source; they are usually repeats but may differ in a detail not shown here. Equal values may be shown once.

In general, koff refers to a measure of how fast the partners let go of each other. By kon is commonly meant a measure of how fast the partners come together. Lower therefore signals slower complex formation.

B1: Bcl-B (natural protein)
chain: ADPLRERTELLLADYLGYCAREPGTPEPAPSTPEAAVLRSAAARLRQIHRSFFSAYLGYPGNRFELVALMADSVLSDSPGPTWGRVVTLVTFAGTLLERGPLVTARWKKWGFQPRLKEQEGDVARDCQRLVALLSSRLMGQHRAWLQAQGGWDGFCHFFRTPFPLA
modifications: biotin (enzymatic, BirA)
Regarding B1, the koff is 0.199 s⁻¹ and 0.186 s⁻¹ and 0.148 s⁻¹ and 0.178 s⁻¹; the kon is 5830 M⁻¹ s⁻¹ and 9300 M⁻¹ s⁻¹ and 13200 M⁻¹ s⁻¹ and 9440 M⁻¹ s⁻¹.

The values above are taken from PMC5127641 (eLife, 2016).
